Key:
Experiment in all cases: purified protein
[1] = substrate: O=C(O)CC(=O)C(=O)O; details: co-substrate 6 mM L-tyrosine, 0.48 mM PLP, 1 M Tris/HCl pH 8.5, 40 °C
[2] = substrate: CC(=O)C(=O)O; format: biochemical, Anthoceros agrestis; details: co-substrate 6 mM L-tyrosine, 0.48 mM PLP, 1 M Tris/HCl pH 8.5, 40 °C
[3] = substrate: N[C@@H](Cc1ccc(O)cc1)C(=O)O; format: biochemical, Anthoceros agrestis; details: co-substrate 80 mM 2-oxoglutarate, 0.48 mM PLP, 1 M Tris/HCl pH 8.5, 40 °C
[4] = substrate: N[C@@H](Cc1ccccc1)C(=O)O; format: biochemical, Anthoceros agrestis; details: co-substrate 80 mM 2-oxoglutarate, 0.48 mM PLP, 1 M Tris/HCl pH 8.5, 40 °C
[5] = substrate: O=C(O)C(=O)Cc1ccccc1; format: biochemical, Anthoceros agrestis; details: co-substrate 6 mM L-tyrosine, 0.48 mM PLP, 1 M Tris/HCl pH 8.5, 40 °C
[6] = substrate: O=C(O)CCC(=O)C(=O)O; format: biochemical, Anthoceros agrestis; details: co-substrate 6 mM L-tyrosine, 0.48 mM PLP, 1 M Tris/HCl pH 8.5, 40 °C

B1: AaTAT (tyrosine aminotransferase) (Anthoceros agrestis) (protein)
chain: MATVLNQKRQAEILHGNGVEGGGGGLAVSKIMSKAVVGKPPVARKPAGKTVDKEWNVRPRIAALESRNPIRDIVETKLKPNPNLGKKPISLAQGDPTVYGHLKVPESACAALAEVATSYKYNGYAHSAGILECRSAVADFHSEHLPFELTPEDVGIVVGCSQAIEFSIACLAAEGSNMLVPRPGFPIYDTFCRYYGVEVRYYDLLPERGWEVDLEQVAELADDDTAAMILCNPSNPCGTSFSYQHLSQIAGLCEKLKLPIISDEIYEHMLFGEKKFTPMATFSLQVPVLTVGGISKRWLAPGWRLGWILICDPCCILEKSGVVEALKRIMQMTIGTSVLVQAAVPAMLQNTTPEFYKQTMKTLEDGCDCCYRRIQGIVGLDVPTKPDGAMYMMAKVDPSAFKDIPDDTVFAEKLVKEENIVVLPGSAFGIHNWLRLVFATPVYMLEEAFDRIEAFCLRHASVQN
notes: full length, 464 residues (1395 bp), N-terminal 6xHis tag kept, pET-15b, E. coli SoluBL21, Ni-NTA
[1]
  Km: 4.05 ± 1.44 mM
  Vmax: 0.756 µmol/min/mg
  kcat: 0.7 s⁻¹
  kcat/Km: 200 M⁻¹ s⁻¹
[2]
  Km: 81.14 ± 15.12 mM
  Vmax: 13.4 µmol/min/mg
  kcat: 11.9 ± 1.6 s⁻¹
  kcat/Km: 150 ± 20 M⁻¹ s⁻¹
[3]
  Km: 0.53 ± 0.05 mM
  Vmax: 55.3 µmol/min/mg
  kcat: 48.9 ± 7.6 s⁻¹
  kcat/Km: 91700 ± 9800 M⁻¹ s⁻¹
[4]
  Km: 70.47 ± 4.18 mM
  Vmax: 134 µmol/min/mg
  kcat: 119 ± 26.9 s⁻¹
  kcat/Km: 1700 ± 400 M⁻¹ s⁻¹
[5]
  Km: 7.92 ± 2.35 mM
  Vmax: 31.8 µmol/min/mg
  kcat: 28.2 ± 6.2 s⁻¹
  kcat/Km: 3900 ± 1400 M⁻¹ s⁻¹
[6]
  Km: 15.13 ± 1.34 mM
  Vmax: 82.6 µmol/min/mg
  kcat: 73.1 ± 5.2 s⁻¹
  kcat/Km: 4900 ± 300 M⁻¹ s⁻¹
